PMC4108065, “Inflammation and pancreatic cancer: molecular and functional interactions between S100A8, S100A9, NT-S100A8 and TGFβ1” (Cell Communication and Signaling : CCS, 2014)

Columns and labels:
[1] = S100A8 proteolysis assay in Capan1 conditioned media (MALDI-TOF/MS); type: in vitro ADME, human; details: 3 μM S100A8, Capan1 conditioned medium, 24 hours at 37°C, MALDI-TOF/MS low molecular weight spectra
Experimental: To obtain BxPC3 and Capan1 conditioned media (CM), 400,000 cells were cultured (75 cm^2 flasks) for 96 hours in RPMI supplemented with 1% FCS and 0.1% gentamycin. In parallel, Ukrain (Nowicky Pharma, Wien, Austria) treated Capan1 CM were obtained as above, the difference being that Ukrain was added 24 hours after cells had been seeded at the final concentration of 5 μM. Complete culture media maintained in a cell culture incubator for 96 hours (negative control), Capan1 and Ukrain-treated Capan1 CM were centrifuged at 1,500 rpm for 10 min, and then immediately mixed with 3 μM S100A8 or 2.5 μM S100A9 (ProSpec-Tany TechnoGene, Ness Ziona, Israel) and maintained at 37°C overnight before MALDI-TOF/MS analyses. Complete culture media, BxPC3 and Capan1 CM, treated as described above, were incubated at 37°C with 200 μM of the S100A8 1–19 N-terminal aminoacid sequence (NT-S100A8) (Primm, Milano, Italy) for 1, 2, 3, 4, 5, 6, 12 and 24 hours before MALDI-TOF/MS analyses. At least three independent sets of experiments were performed for both assays.
Cell culture media were first desalted and purified by ZipTip C18 pipette tips, following the procedure described in the ZipTip user’s guide. […]

[2] = system: BxPC3-SMAD4+ IκBα and Akt phosphorylation; test: Signaling western blot in BxPC3-SMAD4+ cells; type: cell-based, human; details: BxPC3-SMAD4+ vs BxPC3, 10 min, 10 nM S100A8
Experimental: The pancreatic cancer cell lines used were: Panc1 and Suit2, donated by Prof Aldo Scarpa (University of Verona, Italy); BxPC3, from Dr Andrea Galli (University of Florence, Italy); MiaPaCa2, Capan1 and the human embryonic kidney Hek293 cell lines, supplied by the American Type Culture Collection (Manassas, VA, USA). BxPC3, Capan1 and Panc1 were cultured in RPMI (Gibco/BRL, Gaithhersburg, MD, USA) supplemented with 10% (BxPC3 and Panc1) and 20% (Capan1) fetal calf serum (FCS) (Gibco/BRL), 1% L-glutamine (Gibco/BRL) and 0.1% gentamycin (Gibco/BRL). MiaPaCa2 and Hek293 were cultured in DMEM (Gibco/BRL) supplemented with 10% FCS, 2% L-glutamine and 0.1% Gentamycin. BxPC3 cells were transfected with the expression vector pBK-cytomegalovirus (CMV)-SMAD4/DPC4, as previously described. One SMAD4/DPC4-expressing clone (BxPC3-SMAD4+) was used for the experiments. Smad4 silencing of MiaPaCa2 cells was performed as previously described.
Five million cells were seeded in Petri dishes (ø 10 cm) and cultured for 24 hours in their respective complete media prior to starting the experiments. […] Lysates were centrifuged for 10 min at 14,000 rpm at 4°C and, in the supernatants, total proteins were measured using the Bio-Rad protein assay (Bio-Rad Laboratories, Milano, Italy). […]

S100A8: inflammatory calcium binding protein S100A8 (ProSpec-Tany TechnoGene)
fragmentation of S100A8 in conditioned medium [1]: a new peptide was found at 2280 m/z | IκBα phosphorylation in Smad4 expressing BxPC3 [2]: reduced IκBα phosphorylation
